Changes are numbered by the printed parent chain.
B1: L2+H8b (antibody, V domains shown)
VH: QVQLQESGPGLVKPSETLSVTCTVSGVSLPDYGVSWIRQPPGKGLEWIGVIWGSETTYYNPSLKSRLTISKDTSKNQFSLKLSSVTAADTAVYYCAKHYYYGGSYAMDYWGQGTSVTVSS
VL: DIQMTQSPSSLSASVGDRVTITCQASQDISKYLNWYQQKPGKAVKLLIYHTSRLHSGVPSRFSGSGSGTDYTLTISSLQPEDIATYFCQQGNTLPYTFGGGTKLEIT
B2: L1+H4 (antibody, V domains shown)
VH: B1 VH with V20L, Y58N, L67V, K71V, T73N, V85L
VL: B1 VL with Q24R, S56T
B3: L1+H3 (antibody, V domains shown)
VH: B1 VH with V20L, Y58N, K71V, L82M
VL: B1 VL with Q24R, S56T
B4: L2+H5b (antibody, V domains shown)
VH: B1 VH with V20L, Y58N, L67V, N76S, F78V
VL: B1 VL
B5: L3+H7b (antibody, V domains shown)
VH: B1 VH with V20L, L67V, N76S, L82M
VL: B1 VL with P8T, Q24R, L73F, F87Y
B6: L3+H1b (antibody, V domains shown)
VH: B1 VH with L67V, K71V, F78V
VL: B1 VL with P8T, Q24R, L73F, F87Y
B7: L2+H2b (antibody, V domains shown)
VH: B1 VH with V20L, I48L, Y58N, L67V, V85L
VL: B1 VL
B8: L3+H2b (antibody, V domains shown)
VH: B1 VH with V20L, I48L, Y58N, L67V, V85L
VL: B1 VL with P8T, Q24R, L73F, F87Y
B9: L3+H4 (antibody, V domains shown)
VH: B1 VH with V20L, Y58N, L67V, K71V, T73N, V85L
VL: B1 VL with P8T, Q24R, L73F, F87Y
B10: L1+H2b (antibody, V domains shown)
VH: B1 VH with V20L, I48L, Y58N, L67V, V85L
VL: B1 VL with Q24R, S56T
B11: L2+H4 (antibody, V domains shown)
VH: B1 VH with V20L, Y58N, L67V, K71V, T73N, V85L
VL: B1 VL
B12: L2+H7b (antibody, V domains shown)
VH: B1 VH with V20L, L67V, N76S, L82M
VL: B1 VL
B13: L2+H6b (antibody, V domains shown)
VH: B1 VH with V20L, I48L, L67V, K71V, T73N
VL: B1 VL
B14: L1+H5b (antibody, V domains shown)
VH: B1 VH with V20L, Y58N, L67V, N76S, F78V
VL: B1 VL with Q24R, S56T
B15: L1+H8b (antibody, V domains shown)
VH: B1 VH
VL: B1 VL with Q24R, S56T
B16: L1+H6b (antibody, V domains shown)
VH: B1 VH with V20L, I48L, L67V, K71V, T73N
VL: B1 VL with Q24R, S56T
B17: L1+H7b (antibody, V domains shown)
VH: B1 VH with V20L, L67V, N76S, L82M
VL: B1 VL with Q24R, S56T
B18: L1+H1b (antibody, V domains shown)
VH: B1 VH with L67V, K71V, F78V
VL: B1 VL with Q24R, S56T
B19: CD19-BsAb BC250 (hFMC63 VL-2/VH-1b x CD3 IgG-scFv bispecific antibody) (bispecific antibody)
heavy: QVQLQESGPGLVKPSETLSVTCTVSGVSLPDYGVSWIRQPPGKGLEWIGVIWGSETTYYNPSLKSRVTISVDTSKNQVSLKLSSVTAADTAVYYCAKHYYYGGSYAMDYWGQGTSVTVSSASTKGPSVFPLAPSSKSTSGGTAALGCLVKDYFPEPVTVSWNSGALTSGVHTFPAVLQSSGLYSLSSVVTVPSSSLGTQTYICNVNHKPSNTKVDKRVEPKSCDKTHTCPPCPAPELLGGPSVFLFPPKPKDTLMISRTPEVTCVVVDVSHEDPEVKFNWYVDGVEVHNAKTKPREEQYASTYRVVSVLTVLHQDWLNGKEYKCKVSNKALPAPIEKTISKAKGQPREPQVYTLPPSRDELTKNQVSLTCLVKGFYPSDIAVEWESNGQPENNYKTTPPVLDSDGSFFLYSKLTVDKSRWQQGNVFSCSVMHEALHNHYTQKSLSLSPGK
light: DIQMTQSPSSLSASVGDRVTITCQASQDISKYLNWYQQKPGKAVKLLIYHTSRLHSGVPSRFSGSGSGTDYTLTISSLQPEDIATYFCQQGNTLPYTFGGGTKLEITRTVAAPSVFIFPPSDEQLKSGTASVVCLLNNFYPREAKVQWKVDNALQSGNSQESVTEQDSKDSTYSLSSTLTLSKADYEKHKVYACEVTHQGLSSPVTKSFNRGECTSGGGGSGGGGSGGGGSQVQLVQSGGGVVQPGRSLRLSCKASGYTFTRYTMHWVRQAPGKCLEWIGYINPSRGYTNYNQKFKDRFTISRDNSKNTAFLQMDSLRPEDTGVYFCARYYDDHYSLDYWGQGTPVTVSSGGGGSGGGGSGGGGSGGGGSGGGGSGGGGSDIQMTQSPSSLSASVGDRVTITCSASSSVSYMNWYQQTPGKAPKRWIYDTSKLASGVPSRFSGSGSGTDYTFTISSLQPEDIATYYCQQWSSNPFTFGCGTKLQITR
B20: L3+H8b (antibody, V domains shown)
VH: B1 VH
VL: B1 VL with P8T, Q24R, L73F, F87Y
B21: L3+H6b (antibody, V domains shown)
VH: B1 VH with V20L, I48L, L67V, K71V, T73N
VL: B1 VL with P8T, Q24R, L73F, F87Y
B22: L3+H3 (antibody, V domains shown)
VH: B1 VH with V20L, Y58N, K71V, L82M
VL: B1 VL with P8T, Q24R, L73F, F87Y
B23: L2+H3 (antibody, V domains shown)
VH: B1 VH with V20L, Y58N, K71V, L82M
VL: B1 VL
B24: L3+H5b (antibody, V domains shown)
VH: B1 VH with V20L, Y58N, L67V, N76S, F78V
VL: B1 VL with P8T, Q24R, L73F, F87Y

Molecular target: T1, human CD19 on CD19(+) NALM6 acute lymphoid leukemia cells (UniProt P15391 20-556)
T1 chain: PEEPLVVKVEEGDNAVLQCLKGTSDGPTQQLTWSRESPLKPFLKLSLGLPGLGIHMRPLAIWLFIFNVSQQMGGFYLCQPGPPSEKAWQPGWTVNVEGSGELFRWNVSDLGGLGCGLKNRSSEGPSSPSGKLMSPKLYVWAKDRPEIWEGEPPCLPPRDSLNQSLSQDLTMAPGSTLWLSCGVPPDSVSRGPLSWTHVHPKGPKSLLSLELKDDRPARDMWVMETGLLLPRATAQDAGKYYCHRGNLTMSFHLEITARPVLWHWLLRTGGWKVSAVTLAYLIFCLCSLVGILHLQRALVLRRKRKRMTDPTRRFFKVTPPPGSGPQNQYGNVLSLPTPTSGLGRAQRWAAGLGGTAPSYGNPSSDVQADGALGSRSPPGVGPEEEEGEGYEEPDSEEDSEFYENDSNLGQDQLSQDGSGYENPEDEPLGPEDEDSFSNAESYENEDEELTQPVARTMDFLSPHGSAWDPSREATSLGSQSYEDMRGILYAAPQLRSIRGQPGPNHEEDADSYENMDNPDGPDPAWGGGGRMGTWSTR
Experiment: FACS

| Binder | EC50 |
| --- | --- |
| B1 | 0.1 µg/mL |
| B2 | 0.25 µg/mL |
| B3 | 0.37 µg/mL |
| B4 | 0.19 µg/mL |
| B5 | 0.08 µg/mL |
| B6 | 0.19 µg/mL |
| B7 | 0.17 µg/mL |
| B8 | 0.28 µg/mL |
| B9 | 0.42 µg/mL |
| B10 | 0.23 µg/mL |
| B11 | 0.27 µg/mL |
| B12 | 0.06 µg/mL |
| B13 | 0.08 µg/mL |
| B14 | 0.18 µg/mL |
| B15 | 0.13 µg/mL |
| B16 | 0.08 µg/mL |
| B17 | 0.07 µg/mL |
| B18 | 0.13 µg/mL |
| B19 | 0.1 µg/mL |
| B20 | 0.19 µg/mL |
| B21 | 0.13 µg/mL |
| B22 | 0.64 µg/mL |
| B23 | 0.41 µg/mL |
| B24 | 0.28 µg/mL |

Reference: US20220177579A1 (published 2022)
